B1: TRIM15 (parent)
chain: QSSGKILLCPLCQEEEQAETPMAP
B2: TLE6 (parent)
chain: FWHDTLTEQLWRIFAGVHDEKAKP

Variants of: B1
Assay: protein stability index of a GFP-peptide fusion (GPS, HEK-293T) (PSI 1-6); higher = more stable
Conditions: c terminus: a fixed tail appended
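Also: lentivirally expressed fusions sorted by FACS into six bins by GFP to DsRed ratio, PSI derived from sequencing read proportions per bin multiplied by bin number.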

Protein stability index: each site, then its substitutions
G4: V 2.94 | W 2.21 | Y 3.4 | C 4.14 | H 2.96 | I 3.34 | L 2.93 | T 3.66 | F 2.49 | P 3.24 | D 4.24 | K 4.13 | N 2.76 | Q 3.29 | A 3.07 | R 3.72 | E 3.72 | M 3.3 | S 2.86
C9: N 5.59 | L 4 | H 5.15 | R 5.71 | A 5.01 | I 3.84 | P 5.54 | W 4.24 | M 4.5 | T 5.22 | Y 4.36 | K 5.6 | Q 3.61 | F 4.38 | S 5.41
K5: Y 2.36 | N 3.46 | D 3.72 | M 2.41 | V 2.85 | G 3.77 | E 4.56 | A 3.27 | T 3.06 | F 2.1 | P 3.65 | R 3.22 | L 2.86 | H 3.17 | Q 3.98 | S 3.44 | C 3.54 | I 2.17 | W 2.45
I6: K 4.23 | A 4.26 | P 4.11 | F 3.76 | S 3.39 | C 3.94 | H 3.15 | L 3.79 | D 4.77 | Q 3.37 | G 3.53 | M 3.72 | Y 4.04 | N 4.13 | T 3.89 | E 3.62 | R 3.41
C12: T 5.43 | L 4.18 | P 5.04 | Y 4.54 | M 4.86 | I 4.68 | Q 5.09 | K 4.93 | D 4.87 | W 3.75 | E 5.46 | N 4.99 | A 4.22 | H 4.66 | F 4.81 | V 4.62 | S 5.23
E15: D 2.97 | M 2.25 | P 2.84 | G 2.9 | T 2.77 | Y 2.53 | K 3.05 | W 1.65 | C 2.49 | H 2.98 | L 2.5 | F 2 | R 1.81 | S 2.75 | V 2.35 | Q 3.54 | N 2.28 | A 3.17
S3: L 3.3 | W 2.16 | G 3.34 | C 2.33 | P 3.23 | I 3.31 | V 3.57 | K 3.21 | Y 2.82 | R 3.73 | T 3.58 | Q 3.63 | N 3.62 | M 3.24 | H 2.99 | E 3.79 | D 3.07 | A 3.62 | F 3
E16: N 3.1 | C 2.55 | W 2.71 | K 3.08 | L 2.06 | D 3.31 | S 2.59 | T 2.61 | V 2.01 | P 3.28 | M 2.34 | I 2.69 | G 2.78 | Y 3.08 | Q 1.72 | F 2.23
Q1: Y 1.58 | P 2.73 | L 3.13 | K 3.46 | T 3.16 | S 3.28 | V 2.87 | E 3.98 | M 2.63 | A 3.2 | D 3.99 | G 3.8 | F 1.4 | W 3.08 | R 3.35 | N 3.06 | C 2.72 | I 3.27
E14: K 3.14 | I 2.54 | T 2.46 | R 3.3 | W 1.73 | N 3.32 | P 3.39 | A 2.43 | F 1.73 | Q 2.55 | D 3.69 | C 2.55 | G 3.64 | Y 2.5 | M 2.14 | V 2.75
Q17: C 2.23 | A 2.98
L7: N 4.21 | W 3.29 | P 4.42 | H 3.62 | Q 3.94 | K 4.51 | T 3.31 | Y 3.15 | M 3.51 | F 3.47 | I 3.4 | D 4.35 | G 3.9 | S 3.39 | V 3.48 | A 3.65 | C 3.77
S2: D 3.78 | E 4 | C 2.88 | V 2.56 | F 2.18 | R 3.28 | W 2.38 | I 2.62 | T 3.34 | M 2.79 | A 3.52 | K 3.47 | H 3.32 | Y 2.85 | L 2.67 | N 2.86
P10: H 3.42 | G 4.31 | Y 2.71 | F 2.13 | E 4.06 | V 1.82 | N 4.4 | I 1.99 | A 3.35 | S 3.56 | C 3.77 | M 2.75 | Q 3.77
Q13: G 3.46 | F 2.61 | K 3.85 | E 4.64 | D 4.25 | N 3.65 | W 2.35 | L 3.12 | V 3.91 | Y 3.31 | C 2.79 | R 2.69 | I 3.26 | A 2.77 | S 3.54 | T 2.69 | P 4.49 | H 2.95 | M 2.84
L8: T 3.48 | A 4.32 | D 4.91 | N 4.45 | Y 3.28 | W 2.93 | M 3.79 | R 3.34 | Q 4.23 | K 3.83 | E 5.11 | P 4.34 | H 3.96 | C 3.46 | S 3.99 | G 4.08
L11: H 3.68 | G 4.63 | T 4.81 | I 3.94 | E 4.72 | W 3.52 | R 4.3 | C 3.28 | K 4.54 | N 5.01 | D 4.98 | S 4.7 | Y 3.01 | F 3.42 | P 5.27 | Q 4.24 | M 3.78 | V 4.09

Variants of: B2
Assay: as above
Conditions: c terminus: a fixed tail appended

Protein stability index of substitutions, site by site:
K21: W 2.44 | Y 3.31
K23: E 1.65 | P 1.78 | C 2.13 | W 2.25 | T 2.3 | Y 1.92 | V 2.71 | L 1.89 | S 2.17 | M 2.8 | R 1.52 | D 1.49 | N 2.32 | F 3.09 | Q 1.83 | I 1.64 | A 1.78 | H 2.5 | G 1.35
P24: S 2.07 | Q 1.9 | N 2.68 | M 1.64 | I 3.17 | Y 1.58 | D 1.65 | K 1.78 | H 2.1 | V 2.97 | E 2.03 | W 1.92 | L 1.5 | F 2.44 | R 1.69 | A 1.7 | C 2.95 | G 1.66 | T 1.86
A22: D 1.9 | P 2.11 | Y 1.37 | F 3.14 | N 1.94 | V 1.8 | H 1.83 | R 1.84 | W 1.38 | G 1.88 | M 2.03 | T 2.15 | S 2.06 | I 1.74 | Q 1.53 | L 1.58 | E 1.75 | K 1.64 | C 1.81
